Measured values as given in article PMC9308760 (Molecular cell, 2022).

Legend:
cryo-EM structure = target: the molecule itself; assay: cryo-EM structure
negative-stain EM = target: the molecule itself; assay: negative-stain EM
TnsB wild type = target: T1, TnsB wild type (Escherichia coli (Tn7), UniProt P13989 1-702); assay: EMSA
T1 sequence: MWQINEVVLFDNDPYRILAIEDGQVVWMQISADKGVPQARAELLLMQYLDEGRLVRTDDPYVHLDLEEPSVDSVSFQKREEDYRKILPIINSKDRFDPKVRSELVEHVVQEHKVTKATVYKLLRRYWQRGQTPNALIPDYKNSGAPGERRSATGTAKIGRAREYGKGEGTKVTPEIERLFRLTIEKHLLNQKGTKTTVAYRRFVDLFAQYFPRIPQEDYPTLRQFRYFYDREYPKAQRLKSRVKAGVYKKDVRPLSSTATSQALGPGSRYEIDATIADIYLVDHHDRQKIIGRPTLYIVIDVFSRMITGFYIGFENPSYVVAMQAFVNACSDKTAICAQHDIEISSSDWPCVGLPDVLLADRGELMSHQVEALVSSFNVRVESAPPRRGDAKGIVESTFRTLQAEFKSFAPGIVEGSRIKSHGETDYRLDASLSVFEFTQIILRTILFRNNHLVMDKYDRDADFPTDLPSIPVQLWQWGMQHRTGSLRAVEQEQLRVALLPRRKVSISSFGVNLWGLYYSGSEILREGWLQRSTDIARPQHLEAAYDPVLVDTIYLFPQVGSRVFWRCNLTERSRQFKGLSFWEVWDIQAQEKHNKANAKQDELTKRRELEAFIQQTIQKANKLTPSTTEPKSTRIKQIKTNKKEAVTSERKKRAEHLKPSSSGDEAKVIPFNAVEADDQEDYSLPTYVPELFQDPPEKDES

TnsB Δ245-251 = target: T2, TnsB Δ245-251 (Escherichia coli (Tn7), UniProt P13989 1-702, del245-251); assay: EMSA
T2 sequence: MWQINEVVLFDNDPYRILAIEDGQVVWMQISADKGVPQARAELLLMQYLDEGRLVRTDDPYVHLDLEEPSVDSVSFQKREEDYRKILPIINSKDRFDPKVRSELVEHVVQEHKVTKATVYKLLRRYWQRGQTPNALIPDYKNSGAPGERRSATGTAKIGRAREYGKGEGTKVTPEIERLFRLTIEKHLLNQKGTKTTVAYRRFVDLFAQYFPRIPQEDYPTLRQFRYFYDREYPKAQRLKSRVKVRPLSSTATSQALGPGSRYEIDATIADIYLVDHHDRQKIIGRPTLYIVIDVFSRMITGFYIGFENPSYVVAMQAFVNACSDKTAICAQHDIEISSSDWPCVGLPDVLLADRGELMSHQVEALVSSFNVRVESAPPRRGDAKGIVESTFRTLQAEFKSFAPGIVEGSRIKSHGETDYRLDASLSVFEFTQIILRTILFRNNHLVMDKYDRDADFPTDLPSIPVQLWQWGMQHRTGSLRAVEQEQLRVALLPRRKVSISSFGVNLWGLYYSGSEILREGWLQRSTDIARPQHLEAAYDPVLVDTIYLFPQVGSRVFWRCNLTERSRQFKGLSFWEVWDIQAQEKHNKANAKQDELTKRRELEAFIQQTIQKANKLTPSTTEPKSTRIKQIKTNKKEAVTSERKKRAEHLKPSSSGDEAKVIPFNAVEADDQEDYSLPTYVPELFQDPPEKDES

B1: Tn7 transposase TnsB (E. coli), wild type (enzyme, UniProt P13989 1-702, looked up)
chain: T1 sequence
B1: binds (cryo-EM structure).

B2: TnsB variant with a shorter DBD2-CD linker (Δ245–251) (enzyme, E. coli)
chain: T2 sequence
B2: binds (negative-stain EM).

B3: 2BSL (dsDNA)
DNA 1: CCCAGTTCCCATCTATTTTGTCACTCTTCCCTAAATAATCCTTAAAAACTCCATTTCCACCCCTCCCAGTTCCCAACTATTTTGTCCGCCCACA
DNA 2: TGTGGGCGGACAAAATAGTTGGGAACTGGGAGGGGTGGAAATGGAGTTTTTAAGGATTATTTAGGGAAGAGTGACAAAATAGATGGGAACTGGG
Work on B3 yielded a Kd (TnsB wild type) of 85 ± 4 nM.

B4: 3BS (dsDNA)
DNA 1: CTAGTTTAAGACTTTATTGTCATAGTTTAGATCTATTTTGTTCAGTTTAAGACTTTATTGTCCGCCCACA
DNA 2: TGTGGGCGGACAATAAAGTCTTAAACTGAACAAAATAGATCTAAACTATGACAATAAAGTCTTAAACTAG
B4: binds (TnsB Δ245-251).
